{"source": "paper PMC12596195", "about": "“Mei5–Sae3 stabilizes both active and inactive forms of Dmc1 filaments independently of its impact on ATP hydrolysis” (Nucleic Acids Research, 2025)", "binders": {"B1": {"name": "84 nt-ssDNA (ssDNA)", "DNA": "GGTAGCGGTTGGGTGAGTGGTGGGGAGGGTCGGGAGGTGGCGTAGAAACATGATAGGAATGTGAATGAATGAAGTACAAGTAAA"}}, "key": {"Dmc1-WT [1]": {"molecular_target": "T1, Dmc1-WT (Saccharomyces cerevisiae, UniProt P25453 1-334)", "T1 sequence": "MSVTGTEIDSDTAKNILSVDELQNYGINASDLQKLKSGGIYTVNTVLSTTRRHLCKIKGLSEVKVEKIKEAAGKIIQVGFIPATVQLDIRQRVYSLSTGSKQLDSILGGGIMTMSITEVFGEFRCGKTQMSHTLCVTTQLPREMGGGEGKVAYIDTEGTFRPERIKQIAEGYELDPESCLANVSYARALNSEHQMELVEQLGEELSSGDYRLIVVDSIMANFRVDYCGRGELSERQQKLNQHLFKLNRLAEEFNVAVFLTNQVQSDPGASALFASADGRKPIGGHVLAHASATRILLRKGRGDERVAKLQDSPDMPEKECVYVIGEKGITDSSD", "assay": "fluorescence polarization; ATP, 250 uM Ca2+; FP: 25 mM HEPES pH 7.5, 1 mM Mg2+, 1 mM ATP, 1 mM DTT, 50 mM NaCl (100 mM in Fig. 3), 100 ug/ml BSA, 0.02% NP-40, 70 uM Ca2+ or as indicated, 3 nM 84-nt ssDNA", "details": "protein: recombinant; tags: N-terminal 6xHis; label: 5' Alexa Fluor 488"}, "Dmc1-WT [2]": {"molecular_target": "T1, Dmc1-WT", "assay": "fluorescence polarization; ATP, 1 mM Ca2+; FP: 25 mM HEPES pH 7.5, 1 mM Mg2+, 1 mM ATP, 1 mM DTT, 50 mM NaCl (100 mM in Fig. 3), 100 ug/ml BSA, 0.02% NP-40, 70 uM Ca2+ or as indicated, 3 nM 84-nt ssDNA", "details": "protein: recombinant; tags: N-terminal 6xHis; label: 5' Alexa Fluor 488"}, "RecA": {"molecular_target": "RecA (Escherichia coli, UniProt P0A7G6 1-353)", "sequence (P0A7G6 whole entry)": "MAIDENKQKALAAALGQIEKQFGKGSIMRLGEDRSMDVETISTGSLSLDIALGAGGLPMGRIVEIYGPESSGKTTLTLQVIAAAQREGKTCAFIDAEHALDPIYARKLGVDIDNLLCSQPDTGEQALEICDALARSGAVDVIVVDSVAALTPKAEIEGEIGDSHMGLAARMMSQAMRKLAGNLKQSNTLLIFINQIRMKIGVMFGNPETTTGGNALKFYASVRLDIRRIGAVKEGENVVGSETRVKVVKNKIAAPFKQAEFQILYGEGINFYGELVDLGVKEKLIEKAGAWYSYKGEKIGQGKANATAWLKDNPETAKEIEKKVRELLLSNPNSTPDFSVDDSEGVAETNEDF", "assay": "fluorescence polarization; 100 mM NaCl (90% of binding remains); FP: 25 mM HEPES pH 7.5, 1 mM Mg2+, 1 mM ATP, 1 mM DTT, 50 mM NaCl (100 mM in Fig. 3), 100 ug/ml BSA, 0.02% NP-40, 70 uM Ca2+ or as indicated, 3 nM 84-nt ssDNA", "details": "label: 5' Alexa Fluor 488"}, "Dmc1-WT;Mei5-Sae3 [3]": {"molecular_target": "T2, Dmc1-WT;Mei5-Sae3 (Saccharomyces cerevisiae;Saccharomyces …, UniProt P25453;P32489;P89114 1-334;1-222;1-91, |)", "T2 sequence 1": "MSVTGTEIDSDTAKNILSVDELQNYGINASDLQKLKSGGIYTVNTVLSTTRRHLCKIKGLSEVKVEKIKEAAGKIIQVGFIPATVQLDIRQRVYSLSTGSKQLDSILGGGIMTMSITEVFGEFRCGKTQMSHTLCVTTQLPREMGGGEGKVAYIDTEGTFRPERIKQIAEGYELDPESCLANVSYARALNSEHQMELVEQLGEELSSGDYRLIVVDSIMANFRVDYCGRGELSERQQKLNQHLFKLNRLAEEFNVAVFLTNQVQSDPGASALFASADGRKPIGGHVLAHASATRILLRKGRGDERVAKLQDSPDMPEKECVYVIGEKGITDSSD", "T2 sequence 2": "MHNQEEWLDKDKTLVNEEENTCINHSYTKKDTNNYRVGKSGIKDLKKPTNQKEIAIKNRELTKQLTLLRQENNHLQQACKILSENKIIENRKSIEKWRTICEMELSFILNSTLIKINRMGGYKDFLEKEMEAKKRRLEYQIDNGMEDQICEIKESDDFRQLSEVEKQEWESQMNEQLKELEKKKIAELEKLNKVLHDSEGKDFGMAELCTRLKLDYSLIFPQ", "T2 sequence 3": "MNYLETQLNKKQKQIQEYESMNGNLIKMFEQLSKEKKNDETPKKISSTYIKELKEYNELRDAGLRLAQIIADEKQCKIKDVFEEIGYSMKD", "assay": "fluorescence polarization; ADP, 400 nM Mei5-Sae3; FP: 25 mM HEPES pH 7.5, 1 mM Mg2+, 1 mM ATP, 1 mM DTT, 50 mM NaCl (100 mM in Fig. 3), 100 ug/ml BSA, 0.02% NP-40, 70 uM Ca2+ or as indicated, 3 nM 84-nt ssDNA", "details": "protein: recombinant;recombinant; tags: N-terminal 6xHis;N-terminal 6xHis on Mei5; label: 5' Alexa Fluor 488"}, "hRad51 [4]": {"molecular_target": "T3, hRad51 (Homo sapiens, UniProt Q06609 1-339)", "T3 sequence (Q06609 whole entry)": "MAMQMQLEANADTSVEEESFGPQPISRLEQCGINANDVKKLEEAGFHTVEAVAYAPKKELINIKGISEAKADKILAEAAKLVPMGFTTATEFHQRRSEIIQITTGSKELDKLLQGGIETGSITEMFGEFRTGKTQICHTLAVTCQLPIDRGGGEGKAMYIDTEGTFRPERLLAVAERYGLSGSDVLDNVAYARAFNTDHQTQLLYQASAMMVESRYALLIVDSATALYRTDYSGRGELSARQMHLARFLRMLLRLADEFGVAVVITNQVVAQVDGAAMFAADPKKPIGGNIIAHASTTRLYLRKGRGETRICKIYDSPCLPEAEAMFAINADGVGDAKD", "assay": "fluorescence polarization; ADP; FP: 25 mM HEPES pH 7.5, 1 mM Mg2+, 1 mM ATP, 1 mM DTT, 50 mM NaCl (100 mM in Fig. 3), 100 ug/ml BSA, 0.02% NP-40, 70 uM Ca2+ or as indicated, 3 nM 84-nt ssDNA", "details": "chain copies: 28; label: 5' Alexa Fluor 488"}, "Dmc1-WT [5]": {"molecular_target": "T1, Dmc1-WT", "assay": "fluorescence polarization; ATP, 0 Ca2+; FP: 25 mM HEPES pH 7.5, 1 mM Mg2+, 1 mM ATP, 1 mM DTT, 50 mM NaCl (100 mM in Fig. 3), 100 ug/ml BSA, 0.02% NP-40, 70 uM Ca2+ or as indicated, 3 nM 84-nt ssDNA", "details": "protein: recombinant; tags: N-terminal 6xHis; label: 5' Alexa Fluor 488"}, "Dmc1-WT [6]": {"molecular_target": "T1, Dmc1-WT", "assay": "fluorescence polarization; ATP, 70 uM Ca2+; FP: 25 mM HEPES pH 7.5, 1 mM Mg2+, 1 mM ATP, 1 mM DTT, 50 mM NaCl (100 mM in Fig. 3), 100 ug/ml BSA, 0.02% NP-40, 70 uM Ca2+ or as indicated, 3 nM 84-nt ssDNA", "details": "protein: recombinant; tags: N-terminal 6xHis; label: 5' Alexa Fluor 488"}, "RecA;Mei5-Sae3": {"molecular_target": "RecA;Mei5-Sae3 (Escherichia coli;Saccharomyces …, UniProt P0A7G6;P32489;P89114 1-353;1-222;1-91, |)", "sequence (P0A7G6 whole entry, one chain of several)": "as the sequence (P0A7G6 whole entry) above", "assay": "fluorescence polarization; 400 nM Mei5-Sae3: no impact on Kd; FP: 25 mM HEPES pH 7.5, 1 mM Mg2+, 1 mM ATP, 1 mM DTT, 50 mM NaCl (100 mM in Fig. 3), 100 ug/ml BSA, 0.02% NP-40, 70 uM Ca2+ or as indicated, 3 nM 84-nt ssDNA", "details": "protein: ;recombinant; tags: ;N-terminal 6xHis on Mei5; label: 5' Alexa Fluor 488"}, "hRad51 [7]": {"molecular_target": "T3, hRad51", "assay": "fluorescence polarization; ATP; FP: 25 mM HEPES pH 7.5, 1 mM Mg2+, 1 mM ATP, 1 mM DTT, 50 mM NaCl (100 mM in Fig. 3), 100 ug/ml BSA, 0.02% NP-40, 70 uM Ca2+ or as indicated, 3 nM 84-nt ssDNA", "details": "chain copies: 28; label: 5' Alexa Fluor 488"}, "Dmc1-E157D": {"molecular_target": "T4, Dmc1-E157D (Saccharomyces cerevisiae, UniProt P25453 1-334, E157D)", "T4 sequence": "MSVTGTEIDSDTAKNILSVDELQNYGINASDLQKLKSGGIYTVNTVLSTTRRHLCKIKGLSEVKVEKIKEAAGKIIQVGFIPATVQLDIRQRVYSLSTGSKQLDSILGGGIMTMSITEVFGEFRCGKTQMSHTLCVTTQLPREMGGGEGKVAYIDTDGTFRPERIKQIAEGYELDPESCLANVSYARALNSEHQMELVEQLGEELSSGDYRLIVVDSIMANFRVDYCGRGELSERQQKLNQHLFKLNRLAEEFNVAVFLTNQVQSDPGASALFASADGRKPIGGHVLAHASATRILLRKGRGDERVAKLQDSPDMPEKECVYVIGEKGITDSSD", "assay": "fluorescence polarization; ATP, 70 uM Ca2+, 50 mM NaCl, 30 C; comparable to WT; FP: 25 mM HEPES pH 7.5, 1 mM Mg2+, 1 mM ATP, 1 mM DTT, 50 mM NaCl (100 mM in Fig. 3), 100 ug/ml BSA, 0.02% NP-40, 70 uM Ca2+ or as indicated, 3 nM 84-nt ssDNA", "details": "protein: recombinant; tags: N-terminal 6xHis; label: 5' Alexa Fluor 488"}, "Dmc1-WT;Mei5-Sae3 [8]": {"molecular_target": "T2, Dmc1-WT;Mei5-Sae3", "assay": "fluorescence polarization; AMP-PNP, 400 nM Mei5-Sae3; FP: 25 mM HEPES pH 7.5, 1 mM Mg2+, 1 mM ATP, 1 mM DTT, 50 mM NaCl (100 mM in Fig. 3), 100 ug/ml BSA, 0.02% NP-40, 70 uM Ca2+ or as indicated, 3 nM 84-nt ssDNA", "details": "protein: recombinant;recombinant; tags: N-terminal 6xHis;N-terminal 6xHis on Mei5; label: 5' Alexa Fluor 488"}, "Mei5-Sae3": {"molecular_target": "T5, Mei5-Sae3 (Saccharomyces cerevisiae, UniProt P32489;P89114 1-222;1-91)", "T5 sequence 1": "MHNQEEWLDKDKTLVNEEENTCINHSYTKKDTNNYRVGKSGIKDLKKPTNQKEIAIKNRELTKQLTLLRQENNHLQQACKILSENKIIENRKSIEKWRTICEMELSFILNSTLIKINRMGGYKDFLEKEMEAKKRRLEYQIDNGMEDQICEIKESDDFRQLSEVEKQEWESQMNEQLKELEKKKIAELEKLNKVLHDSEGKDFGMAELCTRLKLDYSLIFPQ", "T5 sequence 2": "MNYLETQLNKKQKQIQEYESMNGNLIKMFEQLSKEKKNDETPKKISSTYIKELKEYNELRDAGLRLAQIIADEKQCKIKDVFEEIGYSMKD", "assay": "fluorescence polarization; titration; very low signal at 400 nM; FP: 25 mM HEPES pH 7.5, 1 mM Mg2+, 1 mM ATP, 1 mM DTT, 50 mM NaCl (100 mM in Fig. 3), 100 ug/ml BSA, 0.02% NP-40, 70 uM Ca2+ or as indicated, 3 nM 84-nt ssDNA", "details": "protein: recombinant; tags: N-terminal 6xHis on Mei5; copies: 1;1; label: 5' Alexa Fluor 488"}, "Dmc1-WT;Mei5-Sae3 [9]": {"molecular_target": "T2, Dmc1-WT;Mei5-Sae3", "assay": "fluorescence polarization; ATP, 70 uM Ca2+, Mei5-Sae3 (400 nM, no own signal); FP: 25 mM HEPES pH 7.5, 1 mM Mg2+, 1 mM ATP, 1 mM DTT, 50 mM NaCl (100 mM in Fig. 3), 100 ug/ml BSA, 0.02% NP-40, 70 uM Ca2+ or as indicated, 3 nM 84-nt ssDNA", "details": "protein: recombinant;recombinant; tags: N-terminal 6xHis;N-terminal 6xHis on Mei5; label: 5' Alexa Fluor 488"}}, "note": "“And” between values parts separate entries of the source, which are not always exact repeats. Equal values may be shown once."}
{"binder": "B1", "values": [{"measurement": "Kd", "setting": "Dmc1-WT [1]", "value": "472 nM and 508 nM"}, {"measurement": "Kd", "setting": "Dmc1-WT [2]", "value": "164 ± 13", "unit": "nM"}, {"measurement": "binding result", "setting": "RecA", "value": "binds"}, {"measurement": "fold decrease in Kd vs Dmc1 alone", "setting": "Dmc1-WT;Mei5-Sae3 [3]", "value": "~1.5 fold lower Kd than Dmc1 alone"}, {"measurement": "Kd", "setting": "hRad51 [4]", "value": "476 ± 20", "unit": "nM"}, {"measurement": "Kd", "setting": "Dmc1-WT [5]", "value": "1340 ± 113", "unit": "nM"}, {"measurement": "Kd", "setting": "Dmc1-WT [6]", "value": "966 nM and 933 nM"}, {"measurement": "binding result", "setting": "RecA;Mei5-Sae3", "value": "binds"}, {"measurement": "Kd", "setting": "hRad51 [7]", "value": "342 ± 10", "unit": "nM"}, {"measurement": "binding result", "setting": "Dmc1-E157D", "value": "binds"}, {"measurement": "fold decrease in Kd", "setting": "Dmc1-WT;Mei5-Sae3 [8]", "value": "~1.5 fold lower Kd than Dmc1 alone"}, {"measurement": "binding result", "setting": "Mei5-Sae3", "value": "binds"}, {"measurement": "Kd", "setting": "Dmc1-WT;Mei5-Sae3 [9]", "value": "512 ± 25", "unit": "nM"}]}
